Results reported in PMC4649501 (2015).

T1: PDCD6 N-terminal domain peptide (Homo sapiens, Ca2+ (100 uM CaCl2))
T1 chain: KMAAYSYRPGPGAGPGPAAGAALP


What was measured:
PDCD6 = PDCD6 (Homo sapiens, UniProt O75340); assay: SPR
[1] = molecular target: T1, PDCD6 N-terminal domain peptide; assay: SPR

Chain of PDCD6 (O75340 2-191): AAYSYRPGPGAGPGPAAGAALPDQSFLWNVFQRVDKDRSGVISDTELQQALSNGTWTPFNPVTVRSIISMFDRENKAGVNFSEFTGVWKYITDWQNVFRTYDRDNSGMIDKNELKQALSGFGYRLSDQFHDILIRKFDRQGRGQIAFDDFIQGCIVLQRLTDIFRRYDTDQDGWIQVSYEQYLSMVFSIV

Binder | Kd (PDCD6) [µM] | Kd [1] [µM]
SCBD (Sorcin calcium-binding domain) 33-198 (protein) DPLYGYFAAVAGQDGQIDADELQRCLTQSGIAGGYKPFNLETCRLMVSMLDRDMSGTMGFNEFKELWAVLNGWRQHFISFDTDRSGTVDPQELQKALTTMGFRLSPQAVNSIAKRYSTNGKITFDDYIACCVKLRALTDSFRRRDTAQQGVVNFPYDDFIQCVMSV | 5 | 6
SCBD (Sorcin calcium-binding domain) 33-198 (protein, Ca2+ (100 uM CaCl2)) DPLYGYFAAVAGQDGQIDADELQRCLTQSGIAGGYKPFNLETCRLMVSMLDRDMSGTMGFNEFKELWAVLNGWRQHFISFDTDRSGTVDPQELQKALTTMGFRLSPQAVNSIAKRYSTNGKITFDDYIACCVKLRALTDSFRRRDTAQQGVVNFPYDDFIQCVMSV | 3.5 | 

Next, values leading:

Kd (PDCD6) [µM] | Kd [1] [µM] | Binder
12 | 5 | Sorcin (protein) MAYPGHPGAGGGYYPGGYGGAPGGPAFPGQTQDPLYGYFAAVAGQDGQIDADELQRCLTQSGIAGGYKPFNLETCRLMVSMLDRDMSGTMGFNEFKELWAVLNGWRQHFISFDTDRSGTVDPQELQKALTTMGFRLSPQAVNSIAKRYSTNGKITFDDYIACCVKLRALTDSFRRRDTAQQGVVNFPYDDFIQCVMSV
3.5 |  | Sorcin (protein, Ca2+ (100 uM CaCl2)) MAYPGHPGAGGGYYPGGYGGAPGGPAFPGQTQDPLYGYFAAVAGQDGQIDADELQRCLTQSGIAGGYKPFNLETCRLMVSMLDRDMSGTMGFNEFKELWAVLNGWRQHFISFDTDRSGTVDPQELQKALTTMGFRLSPQAVNSIAKRYSTNGKITFDDYIACCVKLRALTDSFRRRDTAQQGVVNFPYDDFIQCVMSV
